The nature of the data set: label from the status in PepcDB records.
With “MGHILDSRRCALSVTQQQVLDSLARIKSPRGVALPNANVLSAISASDGKVFFSINVDAAEARAWEAVRAEAEAAVRAIPGATTVMVALTAERKPGSAPPPPPTPSRGTPGVQPVHAHKPPQGGGSPMARQSEIPGVAAVIAVASGKGGVGKSTTALNLALGLRDLGLKVGLLDADIYGPSVPRLTGLRDKPELDGERKMIPLRRFGLAIMSIGFLVEEETAMIWRGPMVMSAVTQMLRDVAWGSLDVLVVDMPPGTGDAQLTLAQNVPLKGAVIVSTPQDLSLIDARRGLAMFRKVNVPVLGIVENMSYFQCPHCGTKSDIFGHGGARHEAEKLGVPFLGEIPLHMAIRATSDAGNPVVDSEPDGPHAAIYRAIAGQVRDQLKGAIAAA”, the protein production result was “failed”. Turning to “MGHNGIINYEVDVQDNKIEDLKILKHSETSGIFNQVIDKLKQNIITEQSFNVDTISGATVMTQALLKSADKAVTDAGVDVQLEHHHHHH”, the protein production result was “not failed”. Consider “MGHSGREERIKDIFKELTSKELTPGLLLTLQKLAQKPNTNLEQFIASCKALTKLSSNNPIIFNELLELLKNKSEEDSTGPKKIAPSINKRKKFKIQLDLDDNEDELDSPVQKKPAPTRTLFKRIDKLKAKQLRQYSPTVKDPSPNSEQQTQNGHAETKDYEPTRSEVVEEDREWYDNDDDYGNLVPEPLSELPEEAKLLPVIRNIDNDDALRNTVQLYPIPLKQRMEWIPPFLSKFALENKVPTSIIIGSISETSSQVSALSMVNPFRNPDSEFSANAKRGSKLVALRRINMEHIQQSRDNTTVLNTAMGEVLGLENNNKAKDKSNQKICDDTALFTPSKDDIKHTKEQLPVFRCRSQLLSLIRENQVVVIIGETGSGKTTQLAQYLYEEGYANDRGKSIVVTQPRRVAAISVAKRVAMEMQVPLGKEVGYSIRFEDVTDSECTKLKFVTDGILLRETLLDDTLDKYSCVIIDEAHERSLNTDILLGFFKILLARRRDLKLIITSATMNAKKFSAFFGNAPQFTIPGRTFPVQTIYTSNPVQDYVEAAVSQAVKIHLANDCSSGDILIFMTGQEDIETTFDTLQEKFLQVYSKKFGTANFEEINDIEILPIYSALPADLQFKIFQDLHGTKRKIIIATNIAETSLTIKGIRYVIDCGYSKLKVYNPKIGLDSLVITPISKANADQRSGRAGRTAPGTAYRLYTEDTFKEDMYLQTIPEIQRTNLSNTLLLLKSLDVTDELSKFPFIDKPPLQTFLSSLYELWFIGAIDTSGQLTPLGLQMAKFPLQPSLSKILLIAVRNGCSDEMLTIVSMLSVPQVFYRPKERQKEADIARNKFFIAKSDHLTLLNVFEQWRANNFSSHWCNKHFVQYKSLVRARDIRDQLLTILKSQKIPVISSGKDWDIIKKCICSGFAHQAAKITGLRNYVHLKTGVSVQLHPTSALHGLGDLPPYVVYHELLMTSKEYICCVTSVDPFWLMEYGGLLYDIKRIKNDQEATTTGLFGEHYEHTLDKVEDDIDINIRRCKDMRDSVIQELKMTDNSNKEDKKQKTKKQNILNGKENSMKPFKRRKPFF”, for which the protein production result is listed as “failed”. “MGIDPVTHRATHKTKRVEATANTFKAVATEWLKEVHQKAVVEEHYNRNVRRLEQHAFPKLGRRPISEIEPSDILEPLRDIAKTGRRETAKRVKTLIGQVFRYTVSTGRAQRDMTADIRGILPALEHHHHHH”: the protein production entry is “failed”. Regarding “MGIFGWRTASLLKKAWQLYQQQHWSKAQQCARQVIEQTPQPEAYYLLGLIAEQLARPLEARTAYEQAIALDPWHAPSHYRLAVVLHALLQQPAAAVPHYQRALEVKPDWVEAHSNLGNAYLDLGDTEGAIACYQKALSLNPDLPTTLYNLGLCLHAQGKLTEATACYEQSLYLEPGQADVHNNLGSAYLELKNYTAATVHFQAALGANPELLVAHYNLGYALHLQGNLAAARDRYQEVLLRDNKHLRTLLQLGQICLAEEDLTGAIGYYQRCLSLDPLNSAAQAGLATALLESGDPQAALPYLRQAVALNPEAEDVRLKFALVLLMLEQFREGWQEYEWRWQQPTGGLRNYPQPRWQGQSLKGKTLFVYSEQGFRDCIQFVRLLPLMAKHAQRIIFEAYPPLVRLCQTLPGIEVMSTEETPPPFDYHTPLLSLPRYLGIDQDHFPKFKPYFPLPTRPPHPLFKVSKPRVGLVWASHSQTRTTVQRSCPLEYFLPLLQEFDVQWYSLQKERSPTEAEQLRQVGVIDCQPYMGDFLDTALLIQQLDAVVTIDTAVAHLAGALGKPLWILLPFVADWRWFWRRSRSPWYPSAELIRQPQRGDWPGAIAQLRSALQAHYRTRCNGIPN”, the protein production entry was “failed”.

Turning to “MGIIERIKEIEAEMARTQKNKATEYHLGQLKAKIAKLRTQLLEPPKGASGGGEGFEVTKYGHGRVALIGFPSVGKSTLLTMLTGTHSEAASYEFTTLTCIPGVIHYNDTKIQLLDLPGIIEGASEGKGRGRQVIAVAKSSDLVLMVLDASKSEGHRQILTKELEAVGLRLNKTPPQIYFKKKKTGGISFNTTAPLTHIDEKLCYQILHEYKIHNAEVLFRENATVDDFIDVIEGNRKYIKCVYVYNKIDVVGIDDVDRLSRQPNSIVISCNLKLNLDRLLARMWDEMGLVRVYSKPQGQQPDFDEPFVLSSDRGGCTVEDFCNHVHRTLVKDMKYALVWGTSTRHNPQNCGLSQHLEDEDVVQIVKKKERDEGGRGRFKSHSNAPARIADREKKAPLKQ”, the protein production entry was “failed”. The same measure for “MGILDEIMNQEHFDIKTSLDYINEYEKLLPFDSEIHTARAVTYFFGEEYKLAEEHIRKALKFRPNNYDNNFYLANILIAMGEYPDAIKSAVLSVTFLKHFAKIQGYDYINDKLFYYNEQVKTLIEYCIENIKDTNVLEDLKRFFGFIELSIAKFPVCFYGDKWNILVGEYLNKDLNSEYNDYICFYSDTYNNMLSDFQKKLYTVINNSEISSICPIESFKSMTAKEFSLDNGKYIIPIATTEYNQVIDFKIKNTNFKSQQVDPPGFFKYYRVNNGISLNSDKDVIIGKPIKLGFKEKNKKLVFTIFIDALSQKYLLETKYKSMPYTKAFFDKGIIFENCYSAGEWTYPSLTSVVTGLYTTNHHFLHSSAGYKYPDDIDLFSEIMKKNEYFTANISGTYALAPYSSGFRGFDRTVFKNSLGFSDSVIINDAIKHIESFKETNQFVFMSLSDVHKILDDIENYSVNYDIVNQTSLDIETSLSKRSSFVSAWQKYDEEAIKKYDVALRELDRQLKGIYDYILQNYSEEEYLISIFSDHGASFLGKDDFLLKSNITNSVLMVRGSGSASNGNTEYISNMDLIPIILKLANIEHDLSKYDCVLPKTLGGKGREFTYSESIYPGQTYKAMVNNDKYCYILETKGITDIDGTINFDEYSDSVFDKKEDKEVKDNDILEYYREIVYNHIKRNIKY”: “failed”; for “MGILDRFEKGLENVVNGAFAKAFRSQVEPVELAGALRREADNKAAVVSRGRTLTANHYSIELSPTDFDRLSGLENELRSDLRQVIGDHAVEQAYSFVGPVSVEFVEAEDLDTGMYRVVSSTQRPDGSPAAQPANRGGYDPVSRSHNIVGEGQANSGSRPVPPRRTPEPAPARPAATSRPASAPVRQAAPARSRTISASVTIHGQDYELHQGTNVFGRSSSSSDYVIDDPGVSRRHFEITVERDHAVANDLGSTNGTLLRGRKLTSANLSDGDVLMAGDAEVRYHENEQDAQ”: “failed”; for “MGINEIIMYIMMFFMLIAAVDRILSQFGGSARFLGKFGKSIEGSGGQFEEGFMAMGALGLAMVGMTALAPVLAHVLGPVIIPVYEMLGANPSMFAGTLLACDMGGFFLAKELAGGDVAAWLYSGLILGSMMGPTIVFSIPVALGIIEPSDRRYLALGVLAGIVTIPIGCIAGGVIAMYSGVQINGQPVEFTFALILMNMIPVLIVAVLVALGLKFIPEKMINGFQIFAKFLVALITIGLAAAVVKFLLGWELIPGLDPIFMAPGDKPGEVMRAIEVIGSISCVLLGAYPMVLLLTRWFEKPLMNVGKLLNVNNIAAAGMVATLANNIPMFGMMKQMDTRGKVINCAFAVSAAFALGDHLGFAAANMNAMIFPMIVGKLIGGVTAIGVAMMLVPKDDAAQVKTEAEAQS”: “failed”. On to “MGISPPLTAVSAFGTDVSGNAFIGAGVATLAVLMVLSAFFSSSEIAMFSIPRHRIDALVEEGRSGADAVAALKSDPHRLLITILVGNNLVNIAMSSIATGLFATSMSQGKAVLAATFGVTALVLLFGESAPKSYAVENSESWALSIAKPLQWSERFLYPLVVLFDYLTRAVNQFTGGRAAIESSYVTRSEIQDMIKTGEREGVIEEDEREMLQRIFRFNNTIAKEVMTPRLDVVAVSKTDTIEAAIQTCTQAGHERVPVYDGELDNVIGVVSLEDLVRESLYGETEDAELDDLIEPTLHVPESKNVDDLLQEMQDERVQLVVVIDEFGTTEGLLTAEDITEEIVGEILDGGEDLPIDSVDEDTVRVRGEVNIEEVNEALNIDLPEGEEFETIAGFIFNRAGRLVEEGEAFRFEDIELTVEHVENTRIMKARVQRLDSAAEADANAEVLTADSTGNGA”, for which the protein production result is recorded as “failed”.

(Values after a protein production outcome set (Wang et al. 2014).)
